Measured values taken from patent publication US20250313635A1, “ANTI-INTEGRIN ANTIBODIES AND USES THEREOF” (Merck Sharp & Dohme LLC, priority 2022, published 2025).
Positions count from the first letter of the chain named. Where two headings read alike, the source gives them in different places. Blank lines part the entries; values can stand above or below the molecule they belong to.

Experiments:
mα5β1 = target: T1, mα5β1 (Mus musculus, UniProt P09055+P11688); experiment: Mouse AlphaLISA integrin-ligand blocking assay (fibronectin); format: biochemical; conditions: Table 12; read-out: IC50 Mouse integrin AlphaLISA assays mα5β1
T1 construct: The full extracellular domains for all α and β integrin subunits; (GGGS)3 linker (C); acidic coiled-coil with cysteine (C); GG-Avitag (C); hexa-histidine tag (C); basic coiled-coil with cysteine (C); made in house; host or cells: Expi293 cells
T1 sequence (P11688 45-999 limits assumed): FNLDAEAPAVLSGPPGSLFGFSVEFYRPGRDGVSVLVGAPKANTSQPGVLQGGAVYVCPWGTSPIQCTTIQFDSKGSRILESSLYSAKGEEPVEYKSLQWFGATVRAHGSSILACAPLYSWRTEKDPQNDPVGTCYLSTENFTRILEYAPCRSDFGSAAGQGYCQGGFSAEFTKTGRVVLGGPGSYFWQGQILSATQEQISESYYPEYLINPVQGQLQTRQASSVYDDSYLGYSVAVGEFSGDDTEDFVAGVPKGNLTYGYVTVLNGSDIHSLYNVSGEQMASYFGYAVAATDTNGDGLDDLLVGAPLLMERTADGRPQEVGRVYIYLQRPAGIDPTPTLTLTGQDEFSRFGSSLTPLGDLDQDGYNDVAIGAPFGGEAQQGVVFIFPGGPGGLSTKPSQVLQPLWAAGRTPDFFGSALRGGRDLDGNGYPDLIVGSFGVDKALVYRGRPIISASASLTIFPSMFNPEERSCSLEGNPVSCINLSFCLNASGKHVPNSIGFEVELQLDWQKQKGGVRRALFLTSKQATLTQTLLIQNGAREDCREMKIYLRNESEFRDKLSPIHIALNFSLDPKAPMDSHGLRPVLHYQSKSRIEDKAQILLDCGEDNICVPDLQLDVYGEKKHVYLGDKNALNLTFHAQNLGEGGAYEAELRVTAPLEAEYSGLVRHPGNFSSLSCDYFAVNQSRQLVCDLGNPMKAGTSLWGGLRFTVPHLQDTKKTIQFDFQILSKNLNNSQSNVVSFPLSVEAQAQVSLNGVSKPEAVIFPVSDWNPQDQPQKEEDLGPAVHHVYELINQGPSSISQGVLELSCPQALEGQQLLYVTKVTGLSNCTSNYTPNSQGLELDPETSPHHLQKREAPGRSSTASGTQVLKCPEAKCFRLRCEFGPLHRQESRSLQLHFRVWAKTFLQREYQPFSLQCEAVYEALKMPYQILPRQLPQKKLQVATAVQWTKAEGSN
T1 sequence (P09055 21-728 limits assumed): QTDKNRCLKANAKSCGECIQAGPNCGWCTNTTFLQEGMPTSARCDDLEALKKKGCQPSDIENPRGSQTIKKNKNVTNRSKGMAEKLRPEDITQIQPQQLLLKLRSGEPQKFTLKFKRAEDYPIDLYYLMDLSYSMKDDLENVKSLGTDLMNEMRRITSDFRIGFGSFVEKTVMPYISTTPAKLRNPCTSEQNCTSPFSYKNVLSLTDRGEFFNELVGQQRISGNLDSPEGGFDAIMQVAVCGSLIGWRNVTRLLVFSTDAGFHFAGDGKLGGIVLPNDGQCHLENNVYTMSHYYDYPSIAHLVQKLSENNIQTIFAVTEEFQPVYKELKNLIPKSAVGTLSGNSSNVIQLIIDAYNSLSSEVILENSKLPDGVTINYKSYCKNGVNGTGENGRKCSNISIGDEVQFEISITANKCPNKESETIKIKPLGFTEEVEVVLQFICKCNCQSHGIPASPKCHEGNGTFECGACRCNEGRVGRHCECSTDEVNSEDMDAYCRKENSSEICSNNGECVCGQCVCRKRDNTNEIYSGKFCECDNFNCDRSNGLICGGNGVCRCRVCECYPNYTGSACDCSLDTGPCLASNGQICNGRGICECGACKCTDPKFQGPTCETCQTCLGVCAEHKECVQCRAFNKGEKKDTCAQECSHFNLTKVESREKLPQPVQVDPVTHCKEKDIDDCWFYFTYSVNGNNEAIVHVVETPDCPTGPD
Method: (§1) Integrin AlphaLISA assay. In the AlphaLISA integrin assays, we used a HEPES based buffer (25 mM HEPES pH 7.4, 137 mM NaCl, 1 mM MgCl2, 1 mM MnCl2, 2 mM CaCl2, 2.7 mM KCl, and 0.05% Tween 20). Optimal assay conditions were determined with a titration of the reagents for signal noise ratio (S/N), linear range, etc. For the respective integrins, we used the final concentrations described in Table 9.
(§2) Briefly, the testing antibody (8 μL) was added as a 4×(of Final testing concentration) solution in the HEPES buffer described previously into a 384w AlphaPlate™ (Perkin Elmer #6005350). Then the integrin and ligand were added sequentially as 8×(4 μL each). Plates were sealed and incubated at room temperature for two hours. Then 4×acceptor bead solution ([…]) was added, and the plates were resealed and incubated at room temperature (RT) for one hour. Finally, 4×([…]) donor beads solution was added in a darkened room and incubated for 45 minutes at room temperature. Plates were read on the Envision (Perkin Elmer) in AlphaScreen™ mode within three hours of donor bead addition.

[1] = test system: Normal human lung fibroblasts; experiment: αSMA imaging, TGFβ-induced αSMA expression; format: cell-based
Method: (§3) αSMA imaging. Primary cells (passage 3-5) were grown on Cell carrier Ultra, collagen Type 1 coated 96-well plates (Perkin Elmer, #6055700) at a density of 25,000 cells/well. Once the cells adhere, they were starved in serum free media for 24 hours followed by addition of treatments, i.e., 5 ng/mL TGFβ (Biolegend #580702)±inhibitors. Cells were pre-treated with inhibitors for 30 minutes prior to the addition of TGFβ stimulation. 48 hours post treatment, the cells were fixed in 4% methanol free paraformaldehyde (ThermoFisher Scientific #28908) for 20 minutes at room temperature and incubated with anti-alpha smooth muscle Actin antibody (Abcam #ab7817) at 1:4000 overnight at 4° C. Following primary antibody incubation, cells were incubated with Goat anti-mouse secondary antibody (ThermoFisher Scientific #A32723) at 1:500 and Hoechst (ThermoFisher Scientific #62249) at 1:1000 for one hour at RT. The fixed and stained cells were images for immunofluorescence on Perkin Elmer's Opera Phenix high content Imager.

mαvβ8 = target: T2, mαvβ8 (Mus musculus, UniProt P43406+Q0VBD0); experiment: Mouse AlphaLISA integrin-ligand blocking assay (LAP); format: biochemical; conditions: Table 12; read-out: IC50 Mouse integrin AlphaLISA assays mαvβ8
T2 construct: The full extracellular domains for all α and β integrin subunits; (GGGS)3 linker (C); acidic coiled-coil with cysteine (C); GG-Avitag (C); hexa-histidine tag (C); basic coiled-coil with cysteine (C); made in house; host or cells: Expi293 cells
T2 sequence (P43406 31-988 limits assumed): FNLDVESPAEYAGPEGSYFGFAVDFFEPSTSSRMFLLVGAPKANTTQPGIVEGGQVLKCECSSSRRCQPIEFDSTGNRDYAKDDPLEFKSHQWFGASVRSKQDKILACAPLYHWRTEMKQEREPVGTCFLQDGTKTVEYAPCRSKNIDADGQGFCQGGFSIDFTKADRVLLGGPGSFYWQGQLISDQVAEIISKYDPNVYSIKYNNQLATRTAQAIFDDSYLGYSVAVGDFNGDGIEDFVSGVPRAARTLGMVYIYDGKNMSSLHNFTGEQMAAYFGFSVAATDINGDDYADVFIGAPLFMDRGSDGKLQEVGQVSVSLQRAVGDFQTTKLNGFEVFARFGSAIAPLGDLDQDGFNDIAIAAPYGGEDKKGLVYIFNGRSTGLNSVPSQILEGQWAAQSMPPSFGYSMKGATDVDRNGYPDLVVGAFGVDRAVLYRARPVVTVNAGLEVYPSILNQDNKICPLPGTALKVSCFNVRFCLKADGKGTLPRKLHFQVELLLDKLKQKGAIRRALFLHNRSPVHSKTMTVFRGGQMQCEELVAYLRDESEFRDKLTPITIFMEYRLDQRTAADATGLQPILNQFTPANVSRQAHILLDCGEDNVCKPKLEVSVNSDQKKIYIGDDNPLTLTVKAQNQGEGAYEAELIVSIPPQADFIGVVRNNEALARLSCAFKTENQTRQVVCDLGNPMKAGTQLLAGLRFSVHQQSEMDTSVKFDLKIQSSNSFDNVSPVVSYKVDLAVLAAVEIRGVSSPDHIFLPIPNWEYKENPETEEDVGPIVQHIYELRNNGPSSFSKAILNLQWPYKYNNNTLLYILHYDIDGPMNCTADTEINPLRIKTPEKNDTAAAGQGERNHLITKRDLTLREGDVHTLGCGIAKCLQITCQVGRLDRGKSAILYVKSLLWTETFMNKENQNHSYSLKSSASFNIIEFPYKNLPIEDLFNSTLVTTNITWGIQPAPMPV
T2 sequence (Q0VBD0 22-681 limits assumed): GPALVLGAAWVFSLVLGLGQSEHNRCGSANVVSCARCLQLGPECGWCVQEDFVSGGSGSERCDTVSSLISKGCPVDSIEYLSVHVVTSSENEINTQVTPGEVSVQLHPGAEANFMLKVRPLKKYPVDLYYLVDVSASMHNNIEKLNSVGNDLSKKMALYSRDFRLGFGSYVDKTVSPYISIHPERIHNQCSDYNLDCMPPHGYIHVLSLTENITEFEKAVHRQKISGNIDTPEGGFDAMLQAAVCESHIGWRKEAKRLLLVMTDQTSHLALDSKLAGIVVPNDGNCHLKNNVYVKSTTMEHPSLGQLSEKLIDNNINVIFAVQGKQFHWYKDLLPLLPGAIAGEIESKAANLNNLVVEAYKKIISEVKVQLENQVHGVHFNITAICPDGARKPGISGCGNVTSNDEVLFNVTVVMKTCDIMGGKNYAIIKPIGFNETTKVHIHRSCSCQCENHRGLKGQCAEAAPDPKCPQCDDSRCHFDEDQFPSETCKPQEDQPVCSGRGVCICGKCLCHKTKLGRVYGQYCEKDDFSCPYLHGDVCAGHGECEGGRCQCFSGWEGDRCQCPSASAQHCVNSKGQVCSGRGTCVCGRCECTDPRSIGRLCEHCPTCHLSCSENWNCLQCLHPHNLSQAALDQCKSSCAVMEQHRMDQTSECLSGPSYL
Method: as §1, §2

[2] = test system: IPF patient lung fibroblasts; experiment: αSMA imaging, TGFβ-induced αSMA expression; format: cell-based, human; conditions: TGFβ 5 ng/mL, 48 hours
Method: as §3

mαvβ5 = target: T3, mαvβ5 (Mus musculus, UniProt O70309+P43406); experiment: Mouse AlphaLISA integrin-ligand blocking assay (vitronectin); format: biochemical; conditions: Table 12; read-out: IC50 Mouse integrin AlphaLISA assays mαvβ5
T3 construct: The full extracellular domains for all α and β integrin subunits; (GGGS)3 linker (C); acidic coiled-coil with cysteine (C); GG-Avitag (C); hexa-histidine tag (C); basic coiled-coil with cysteine (C); made in house; host or cells: Expi293 cells
T3 sequence (P43406 31-988 limits assumed): as the sequence (P43406 31-988 limits assumed) above
T3 sequence (O70309 24-719 limits assumed): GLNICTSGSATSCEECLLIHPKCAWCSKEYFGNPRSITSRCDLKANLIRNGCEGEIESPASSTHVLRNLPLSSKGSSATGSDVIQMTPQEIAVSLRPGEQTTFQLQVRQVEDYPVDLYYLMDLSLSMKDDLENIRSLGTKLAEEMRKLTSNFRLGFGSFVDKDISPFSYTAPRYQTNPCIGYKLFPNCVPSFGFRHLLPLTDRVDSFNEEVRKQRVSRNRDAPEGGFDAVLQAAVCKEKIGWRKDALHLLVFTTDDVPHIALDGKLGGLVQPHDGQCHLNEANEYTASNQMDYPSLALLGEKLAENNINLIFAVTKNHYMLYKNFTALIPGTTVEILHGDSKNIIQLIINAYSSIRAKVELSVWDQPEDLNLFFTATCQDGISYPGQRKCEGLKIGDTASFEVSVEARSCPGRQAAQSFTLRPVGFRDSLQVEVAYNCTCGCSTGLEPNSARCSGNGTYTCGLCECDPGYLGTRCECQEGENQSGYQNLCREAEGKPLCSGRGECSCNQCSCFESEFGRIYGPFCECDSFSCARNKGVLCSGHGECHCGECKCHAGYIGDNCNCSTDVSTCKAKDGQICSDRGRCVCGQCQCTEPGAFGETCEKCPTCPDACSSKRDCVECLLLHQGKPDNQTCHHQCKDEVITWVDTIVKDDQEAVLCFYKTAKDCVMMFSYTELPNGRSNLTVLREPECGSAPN
Method: as §1, §2

mαvβ1 = target: T4, mαvβ1 (Mus musculus, UniProt P09055+P43406); experiment: Mouse AlphaLISA integrin-ligand blocking assay (fibronectin); format: biochemical; conditions: Table 12; read-out: IC50 Mouse integrin AlphaLISA assays mαvβ1
T4 construct: The full extracellular domains for all α and β integrin subunits; (GGGS)3 linker (C); acidic coiled-coil with cysteine (C); GG-Avitag (C); hexa-histidine tag (C); basic coiled-coil with cysteine (C); made in house; host or cells: Expi293 cells
T4 sequence (P43406 31-988 limits assumed): as the sequence (P43406 31-988 limits assumed) above
T4 sequence (P09055 21-728 limits assumed): as the sequence (P09055 21-728 limits assumed) above
Method: as §1, §2

hαvβ6 = target: T5, hαvβ6 (Homo sapiens, UniProt P06756+P18564); experiment: Integrin cell-based ELISA (CELISA) binding, CHOK1-human αvβ6 cells; conditions: FIG. 3C
T5 construct: expressed in transfected cells
Method: (§4) Integrin cell-based ELISA (CELISA) assay. Cell binding EC50 data for antibodies were obtained for CHOK1 parental cells and CHOK1 cells expressing human or mouse αvβ1, αvβ6, and αvβ1 integrins by cell-based ELISA. Three days prior to the assay cells were seeded at 10,000 cells per well in 100 μL/well of media in Falcon 96-well Flat-Bottom Tissue Culture Plates (REF 353916), resulting in an even cell monolayer in each well on the day of the assay. On the day of the assay, media was removed from the cells and a fivefold titration of primary antibodies was added at concentrations ranging from 0 to 200 nM in TBSF+MnCl2 buffer (25 mM Tris, 0.15 M NaCl, 0.1% BSA, 0.5 mM MnCl2, pH 7.5). Cells incubated with primary antibody solution for 1 hour at room temperature. Primary antibody was removed and plates were washed twice with 150 μL/well of 1×DPBS+Tween 20 (TEKnova Cat #β0297, diluted to 1× in distilled water GIBCO #15230-147), before adding 50 μL/well of a 1:5000 dilution of HRP-conjugated goat anti-mouse IgG (Southern Biotech, #1030-05) in TBSF+MnCl2. After 30 minutes of incubation at room temperature, secondary antibody was removed, and cells were washed twice with 150 μL/well of 1×DPBS+Tween 20. […] Absorbance was read on a TECAN plate reader at 450 nm, with a 620 nm reference wavelength.

human αvβ8 = target: T6, human αvβ8 (Homo sapiens, UniProt P06756+P26012); experiment: Latent TGFβ activation assay, TMLC / CHOK1-integrin co-culture (PAI-1 luciferase); format: cell-based; conditions: FIG. 5B
T6 construct: expressed in transfected cells
Method: (§5) Latent TGFβ activation assay. Transfected mink lung epithelial cell (TMLC) cell line containing the TGFβ responsive PAI-1 promoter driving luciferase expression (Mazzieri et al, Methods Mol. Biol. 142, 13-27 (2000)) and the CHO-K1 human and mouse αvβ×integrin cell lines were grown under optimized growth conditions to 90% confluency. TMLC cells were trypsinized and plated at 25,000 cells/well in 50 μL in Costar clear bottom white walled plates. In a separate plate, 25 μL of serially diluted antibodies at 4×concentration were added to wells containing 25 μL of either 25,000 cells of human or mouse αvβ×cells. After a brief mixing, the 50 μL mixture was transferred to the TMLC cell plates for a total volume of 100 μL and incubated at 37° C. for 16 hours. 100 μL of ONE-Glo kit (#PRE6120) was added to each well and read after three to five minutes on the Envision plate reader.

mouse αvβ8 = target: T7, mouse αvβ8 (Mus musculus, UniProt P43406+Q0VBD0); experiment: as above; format: cell-based; conditions: FIG. 5B
T7 construct: expressed in transfected cells
Method: as §5

mouse αvβ1 = target: T8, mouse αvβ1 (Mus musculus, UniProt P09055+P43406); experiment: as above; format: cell-based; conditions: FIG. 5B
T8 construct: expressed in transfected cells
Method: as §5

mouse αvβ6 = target: T9, mouse αvβ6 (Mus musculus, UniProt P43406+Q9Z0T9); experiment: as above; format: cell-based; conditions: FIG. 5B
T9 construct: expressed in transfected cells
Method: as §5

human αvβ1 = target: T10, human αvβ1 (Homo sapiens, UniProt P05556+P06756); experiment: as above; format: cell-based; conditions: FIG. 5B
T10 construct: expressed in transfected cells
Method: as §5

human αvβ6 = target: T11, human αvβ6 (Homo sapiens, UniProt P06756+P18564); experiment: as above; format: cell-based; conditions: FIG. 5B
T11 construct: expressed in transfected cells
Method: as §5

hα5β1 = hα5β1 (Homo sapiens, UniProt P05556+P08648); experiment: Human AlphaLISA integrin-ligand blocking assay (fibronectin); format: biochemical; set-up: The full extracellular domains for all α and β integrin subunits; (GGGS)3 linker (C); acidic coiled-coil with cysteine (C); GG-Avitag (C); hexa-histidine tag (C); basic coiled-coil with cysteine (C); made in house; host or cells: Expi293 cells; conditions: Table 11; read-out: IC50 Human integrin AlphaLISA assays hα5β1
Method: as §1, §2

mαvβ6 = target: T12, mαvβ6 (Mus musculus, UniProt P43406+Q9Z0T9); experiment: Mouse AlphaLISA integrin-ligand blocking assay (LAP); format: biochemical; conditions: Table 12; read-out: IC50 Mouse integrin AlphaLISA assays mαvβ6
T12 construct: The full extracellular domains for all α and β integrin subunits; (GGGS)3 linker (C); acidic coiled-coil with cysteine (C); GG-Avitag (C); hexa-histidine tag (C); basic coiled-coil with cysteine (C); made in house; host or cells: Expi293 cells
Method: as §1, §2

hαvβ1 = target: T13, hαvβ1 (Homo sapiens, UniProt P05556+P06756); experiment: Integrin cell-based ELISA (CELISA) binding, CHOK1-human αvβ1 cells; conditions: FIG. 3C
T13 construct: expressed in transfected cells
Method: as §4

mαvβ3 = target: T14, mαvβ3 (Mus musculus, UniProt O54890+P43406); experiment: Mouse AlphaLISA integrin-ligand blocking assay (vitronectin); format: biochemical; conditions: Table 12; read-out: IC50 Mouse integrin AlphaLISA assays mαvβ3
T14 construct: The full extracellular domains for all α and β integrin subunits; (GGGS)3 linker (C); acidic coiled-coil with cysteine (C); GG-Avitag (C); hexa-histidine tag (C); basic coiled-coil with cysteine (C); made in house; host or cells: Expi293 cells
T14 sequence (P43406 31-988 limits assumed): as the sequence (P43406 31-988 limits assumed) above
T14 sequence (O54890 26-717 limits assumed): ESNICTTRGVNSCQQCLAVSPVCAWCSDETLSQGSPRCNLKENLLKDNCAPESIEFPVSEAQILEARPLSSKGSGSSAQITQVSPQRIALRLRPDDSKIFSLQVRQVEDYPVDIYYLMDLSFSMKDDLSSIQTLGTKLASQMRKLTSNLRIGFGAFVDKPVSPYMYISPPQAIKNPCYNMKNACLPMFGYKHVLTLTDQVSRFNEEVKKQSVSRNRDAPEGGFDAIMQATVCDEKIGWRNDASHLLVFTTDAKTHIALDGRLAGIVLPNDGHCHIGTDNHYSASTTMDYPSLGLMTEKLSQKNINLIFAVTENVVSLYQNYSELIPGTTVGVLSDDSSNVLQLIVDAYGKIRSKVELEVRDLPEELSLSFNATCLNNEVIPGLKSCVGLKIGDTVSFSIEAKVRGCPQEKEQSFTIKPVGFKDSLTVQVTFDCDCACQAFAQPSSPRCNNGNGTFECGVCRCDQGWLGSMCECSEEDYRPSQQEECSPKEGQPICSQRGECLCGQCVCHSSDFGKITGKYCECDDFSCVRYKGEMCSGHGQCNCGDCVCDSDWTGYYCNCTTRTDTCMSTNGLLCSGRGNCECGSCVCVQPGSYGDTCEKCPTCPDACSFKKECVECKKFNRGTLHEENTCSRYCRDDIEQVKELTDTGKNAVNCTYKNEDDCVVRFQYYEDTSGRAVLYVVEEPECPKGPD
Method: as §1, §2

B2: Ab-32: integrin binder antibody, VH SEQ ID NO: 37, VL SEQ ID NO: 38 (antibody, V domains shown)
VH: EVQLQESGPGLVKPSETLSLTCAVSGYSISSGYYWGWIRQPPGKGLEWIGSIYHSGNTYYNPSLKSRVTISVDTSKNQFSLKLSSVTAADTAVYYCARVPRYSRGDAYYYYGMDVWGQGTTVTVSS
VL: EIVLTQSPGTLSLSPGERATLSCRASQSVRSSYLAWYQQKPGQAPRLLIYGASSRATGIPDRFSGSGSGTDFTLTISRLEPEDFAVYYCQQAGLVFTFGGGTKVEIK
IC50 (mα5β1): > 250 nM
IC50 (mαvβ8): 71.9 nM
IC50 (mαvβ5): > 250 nM

B4: Ab-30: integrin binder antibody, VH SEQ ID NO: 33, VL SEQ ID NO: 34 (antibody, V domains shown)
VH: B2 VH
VL: DIQMTQSPSTLSASVGDRVTITCRASQSISSWLAWYQQKPGKAPKLLIYKASSLESGVPSRFSGSGSGTEFTLTISSLQPDDFATYYCQQVKIYPPYTFGGGTKVEIK
IC50 (mα5β1): > 250 nM
IC50 (mαvβ8): 25.1 nM
IC50 (mαvβ5): > 250 nM

B5: Ab-29: integrin binder antibody, VH SEQ ID NO: 31, VL SEQ ID NO: 32 (antibody, V domains shown)
VH: ELQLQESGPGLVKPSETLSLTCTVSGGSISSNSYYWGWIRQPPGKGLEWIGSIYYSGSTYYNPSLKSRVTISVDTSKNQFSLKLSSVTAADTAVYYCARVRRVAGRGDSYYYYYGMDVWGQGTTVTVSS
VL: DIQMTQSPSSVSASVGDRVTITCRASQGISRWLAWYQQKPGKAPKLLIYAASSLQSGVPSRFSGSGSGTDFTLTISSLQPEDFATYYCQQAISHPWTFGGGTKVEIK
IC50 (mα5β1): > 250 nM
IC50 (mαvβ8): 102 nM

The next lines start with results.

IC50 (mα5β1): > 250 nM
IC50 (mαvβ8): 66.3 nM
IC50 (mαvβ5): > 250 nM
B1: Ab-31: integrin binder antibody, VH SEQ ID NO: 35, VL SEQ ID NO: 36 (antibody, V domains shown)
VH: B2 VH
VL: DIQMTQSPSTLSASVGDRVTITCRASQSIGSWLAWYQQKPGKAPKLLIYKASSLESGVPSRFSGSGSGTEFTLTISSLQPDDFATYYCQQSGPYPWTFGGGTKVEIK
activity on TGFβ-induced αSMA in normal human lung fibroblasts [1]: ineffective
IC50 ([2]; read-out: IC50 of TGFβ-mediated αSMA induction): 33 ± 21 nM

IC50 (mα5β1): > 250 nM
IC50 (mαvβ8): 24.7 nM
B3: Ab-33: integrin binder antibody, VH SEQ ID NO: 39, VL SEQ ID NO: 40 (antibody, V domains shown)
VH: EVQLVQSGAEVKKPGSSVKVSCKASGGTFSNYAISWVRQAPGQGLEWMGGIIPIFGTANYAQKFQGRVTITADESTSTAYMELSSLRSEDTAVYYCARAPRSARGDMYYYYYGMDVWGQGTTVTVSS
VL: B1 VL with S91Y, P93R

IC50 (mα5β1): > 250 nM
IC50 (mαvβ1): > 250 nM
binding to human αvβ6 integrin in CELISA (hαvβ6): preferentially bound
inhibition of latent TGFβ activation, human αvβ8 co-culture (human αvβ8): potent
inhibition of latent TGFβ activation, mouse αvβ8 co-culture (mouse αvβ8): minimal activity
inhibition of latent TGFβ activation, mouse αvβ1 co-culture (mouse αvβ1): minimal activity
inhibition of latent TGFβ activation, mouse αvβ6 co-culture (mouse αvβ6): minimal activity
inhibition of latent TGFβ activation, human αvβ1 co-culture (human αvβ1): potent
inhibition of latent TGFβ activation, human αvβ6 co-culture (human αvβ6): potent
IC50 (hα5β1): > 250 nM
IC50 (mαvβ6): > 250 nM
IC50 (mαvβ8): > 250 nM
binding to human αvβ1 integrin in CELISA (hαvβ1): preferentially bound
IC50 (mαvβ3): > 250 nM
IC50 (mαvβ5): > 250 nM
B6: mAb-24: control antibody abituzumab; 17E6, a therapeutic pan-αv integrin antibody (antibody, chains of the INN, looked up, V domains shown)
VH: QVQLQQSGGELAKPGASVKVSCKASGYTFSSFWMHWVRQAPGQGLEWIGYINPRSGYTEYNEIFRDKATMTTDTSTSTAYMELSSLRSEDTAVYYCASFLGRGAMDYWGQGTTVTVSS
VL: DIQMTQSPSSLSASVGDRVTITCRASQDISNYLAWYQQKPGKAPKLLIYYTSKIHSGVPSRFSGSGSGTDYTFTISSLQPEDIATYYCQQGNTFPYTFGQGTKVEIK
IC50 ([2]; read-out: IC50 of αSMA expression): > 1000 nM
